Experimental data reported in US20210380703A1 (RIGEL PHARMACEUTICALS, published 2021).

Columns and labels:
human ACVR2A = biological target: T1, human ACVR2A (human, UniProt P27037 20-135, limits assumed); test: ELISA
T1 construct: also called activin receptor, type II A
Outline: (§1)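 ELISA measured binding of ACVR2A-specific monoclonal antibodies to human and mouse ACVR2A. Biotinylated goat anti-human kappa light chain served as positive control and human Fc as negative control.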

mouse ACVR2A = mouse ACVR2A (mouse, UniProt P27038 20-135, limits assumed); test: ELISA
Outline: as §1

[1] = biological target: T2, biotinylated goat anti-human kappa light chain; test: ELISA, positive control
T2 construct: positive control of the ELISA
Outline: as §1
Also: test concentration or dose not given here.

T1 sequence (P27037 20-135 limits assumed): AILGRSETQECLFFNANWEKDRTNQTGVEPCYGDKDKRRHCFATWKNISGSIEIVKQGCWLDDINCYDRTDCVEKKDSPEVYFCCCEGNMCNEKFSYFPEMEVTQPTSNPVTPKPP
mouse ACVR2A, sequence (P27038 20-135 limits assumed): as the sequence (P27037 20-135 limits assumed) above, with K20R, V73I counted along it

| optical density (human ACVR2A) | optical density (mouse ACVR2A) | optical density [1] | Binder |
| --- | --- | --- | --- |
| 1.14 OD | 1.26 OD | 3.04 OD | 365_B08 (antibody, V domains shown, Group II) VH: EVQLLESGGGLVQPGGSLRLSCAASGFTFDSYGMNWVRQAPGKGLEWVSNINYNSGYKGYADSVKGRFTISRDNSKNTLYLQMNSLRAEDTAVYYCARAATWHDTHLDYWGQGTLVTVSS VL: DIQMTQSPSSLSASVGDRVTITCRASQSIVTYLNWYQQKPGKAPKLLIYAATSRASGVPSRFSGSGSGTDFTLTISSLQPEDFATYYCQQSYSSPLTFGGGTKVEIK |
| 2.33 OD | 2.29 OD | 3.43 OD | 365_B12 (antibody, V domains shown, Group II) VH: EVQLLESGGGLVQPGGSLRLSCAASGFTFSDYGMHWVRQAPGKGLEWVSGINYNGGYTSYADSVKGRFTISRDNSKNTLYLQMNSLRAEDTAVYYCARAATWHDTHLDYWGQGTLVTVSS VL: DIQMTQSPSSLSASVGDRVTITCRASQSISTYVNWYQQKPGKAPKLLIYAVTSLHSGVPSRFSGSGSGTDFTLTISSLQPEDFATYYCQQSYDNPLTFGGGTKVEIK |
| 1.99 OD | 2.06 OD | 3.29 OD | 365_E06 (antibody, V domains shown, Group II) VH: EVQLLESGGGLVQPGGSLRLSCAASGFTFDSYGMNWVRQAPGKGLEWVSGINYNGGYTGYADSVKGRFTISRDNSKNTLYLQMNSLRAEDTAVYYCARAATWHDTHLDYWGQGTLVTVSS VL: DIQMTQSPSSLSASVGDRVTITCRASQSILTYLNWYQQKPGKAPKLVIYAATSRASGVPSRFSGSGSGTDFTLTISSLQPEDFATYYCQQSYNTPLTFGGGTKVEIK |
| 2.34 OD | 2.4 OD | 3.54 OD | 365_E04 (antibody, V domains shown, Group I) VH: EVQLLESGGGLVQPGGSLRLSCAASGFTFDSYGMHWVRQAPGKGLEWVASINYNGGYKSYADSVKGRFTISRDNSKNTLYLQMNSLRAEDTAVYYCARAANWHDTALDYWGQGTLVTVSS VL: DIQMTQSPSSLSASVGDRVTITCRASQSILSYVNWYQQKPGKAPKLLIYAATSLASGVPSRFSGSGSGTDFTLTISSLQPEDFATYYCQQSYELPLTFGGGTKVEIK |
| 2.26 OD | 2.65 OD | 3.5 OD | 365_C03 (antibody, V domains shown, Group I) VH: EVQLLESGGGLVQPGGSLRLSCAASGFTFSSYGMHWVRQAPGKGLEWVAGINYNSGYKGYADSVKGRFTISRDNSKNTLYLQMNSLRAEDTAVYYCARAANWHDTHLDYWGQGTLVTVSS VL: DIQMTQSPSSLSASVGDRVTITCRASQSILTYVNWYQQKPGKAPKLVIYATTSLASGVPSRFSGSGSGTDFTLTISSLQPEDFATYYCQQSYNTPLTFGGGTKVEIK |
| 2.35 OD | 2.48 OD | 3.53 OD | 365_D03 (antibody, V domains shown, Group II) VH: EVQLLESGGGLVQPGGSLRLSCAASGFTFDDYSMHWVRQAPGKGLEWVASINYNGGYKSYADSVKGRFTISRDNSKNTLYLQMNSLRAEDTAVYYCARAATWHDTHLDYWGQGTLVTVSS VL: DIQMTQSPSSLSASVGDRVTITCRASQSIVSYLNWYQQKPGKAPKLVIYAATSRASGVPSRFSGSGSGTDFTLTISSLQPEDFATYYCQQSYDSPLTFGGGTKVEIK |
| 1.78 OD | 2.23 OD | 3.45 OD | 365_C06 (antibody, V domains shown, Group I) VH: EVQLLESGGGLVQPGGSLRLSCAASGFTFSDYGMHWVRQAPGKGLEWVSGINYNGGYTSYADSVKGRFTISRDNSKNTLYLQMNSLRAEDTAVYYCARAANWHDTALDYWGQGTLVTVSS VL: DIQMTQSPSSLSASVGDRVTITCRASQSISTYVNWYQQKPGKAPKLLIYAVTSLASGVPSRFSGSGSGTDFTLTISSLQPEDFATYYCQQSYDNPLTFGGGTKVEIK |
| 2.63 OD | 2.99 OD | 3.57 OD | 365_F03 (antibody, V domains shown, Group III) VH: EVQLLESGGGLVQPGGSLRLSCAASGFTFDSYSMNWVRQAPGKGLEWVSSINYNGGYTSYADSVKGRFTISRDNSKNTLYLQMNSLRAEDTAVYYCARGANWHDTHLDYWGQGTLVTVSS VL: DIQMTQSPSSLSASVGDRVTITCRASQSILSYLNWYQQKPGKAPKLLIYAATSRASGVPSRFSGSGSGTDFTLTISSLQPEDFATYYCQQSYDNPLTFGGGTKVEIK |

The remaining lines, values behind:

| Binder | optical density (human ACVR2A) | optical density (mouse ACVR2A) | optical density [1] |
| --- | --- | --- | --- |
| 365_F02 (antibody, V domains shown, Group III) VH: EVQLLESGGGLVQPGGSLRLSCAASGFTFSSYSMNWVRQAPGKGLEWVSGINYNGGYKGYADSVKGRFTISRDNSKNTLYLQMNSLRAEDTAVYYCARGANWHDTHLDYWGQGTLVTVSS VL: DIQMTQSPSSLSASVGDRVTITCRASQSILTYVNWYQQKPGKAPKLLIYAATSRHSGVPSRFSGSGSGTDFTLTISSLQPEDFATYYCQQSYDTPLTFGGGTKVEIK | 2.78 OD | 3.05 OD | 3.4 OD |
| 365_D08 (antibody, V domains shown, Group II) VH: EVQLLESGGGLVQPGGSLRLSCAASGFTFDSYSMHWVRQAPGKGLEWVSSINYNGGYTSYADSVKGRFTISRDNSKNTLYLQMNSLRAEDTAVYYCARAATWHDTHLDYWGQGTLVTVSS VL: DIQMTQSPSSLSASVGDRVTITCRASQSIITYVNWYQQKPGKAPKLLIYAATSRASGVPSRFSGSGSGTDFTLTISSLQPEDFATYYCQQSYDTPLTFGGGTKVEIK | 2.26 OD | 2.35 OD | 3.61 OD |
| 365_C05 (antibody, V domains shown, Group III) VH: EVQLLESGGGLVQPGGSLRLSCAASGFTFSDYSMNWVRQAPGKGLEWVSGINYNGGYKGYADSVKGRFTISRDNSKNTLYLQMNSLRAEDTAVYYCARGANWHDTHLDYWGQGTLVTVSS VL: DIQMTQSPSSLSASVGDRVTITCRASQSILTYLNWYQQKPGKAPKLLIYAATSRHSGVPSRFSGSGSGTDFTLTISSLQPEDFATYYCQQSYNSPLTFGGGTKVEIK | 2.56 OD | 2.81 OD | 3.53 OD |
| 365_D04 (antibody, V domains shown, Group I) VH: EVQLLESGGGLVQPGGSLRLSCAASGFTFSDYGMHWVRQAPGKGLEWVAGINYNGGYKSYADSVKGRFTISRDNSKNTLYLQMNSLRAEDTAVYYCARAANWHDTALDYWGQGTLVTVSS VL: DIQMTQSPSSLSASVGDRVTITCRASQSISSYLNWYQQKPGKAPKLVIYAVTSRASGVPSRFSGSGSGTDFTLTISSLQPEDFATYYCQQSYDLPLTFGGGTKVEIK | 2.27 OD | 2.39 OD | 3.52 OD |
| 365_E12 (antibody, V domains shown, Group III) VH: EVQLLESGGGLVQPGGSLRLSCAASGFTFSDYGMNWVRQAPGKGLEWVSNINYNGGYTGYADSVKGRFTISRDNSKNTLYLQMNSLRAEDTAVYYCARGANWHDTALDYWGQGTLVTVSS VL: DIQMTQSPSSLSASVGDRVTITCRASQSILTYLNWYQQKPGKAPKLLIYAATSRASGVPSRFSGSGSGTDFTLTISSLQPEDFATYYCQQSYETPLTFGGGTKVEIK | 3.32 OD | 3.28 OD | 3.52 OD |
| 365_F10 (antibody, V domains shown, Group II) VH: EVQLLESGGGLVQPGGSLRLSCAASGFTFDDYGMHWVRQAPGKGLEWVSGINYNGGYTSYADSVKGRFTISRDNSKNTLYLQMNSLRAEDTAVYYCARAATWHDTHLDYWGQGTLVTVSS VL: DIQMTQSPSSLSASVGDRVTITCRASQSIVTYVNWYQQKPGKAPKLLIYAATSRASGVPSRFSGSGSGTDFTLTISSLQPEDFATYYCQQSYELPLTFGGGTKVEIK | 2.75 OD | 2.79 OD | 3.65 OD |
